Measured values taken from a protein production outcome set (Wang et al. 2014).

Experiment: label from the status in PepcDB records
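Also: failed if final PepcDB status was selected cloned or expressed and not failed if soluble or beyond.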

Sequence	protein production
MQCRDHSTHLVSLPNSQGPAVPFTMRRPVRPPSVPMSRYRTAPLATTELPPGIPFIIGNELAERFSYYGMRAILVVFMTRYLVDAAGNPAPMQEGEAKGYFHLFVSLTYFTPFLGALLADGVLGKYRTIIALSLVYCLGHFALALDDTRTGLLLGQSLIALGAGGIKPCVSAHVGDQFGQSNRHLLSQIYGWFYLAINLGAFVSMLLIPWLLERHGASVAFAVPGLLMLIATLVFWAGRHRFVHIPPGGMRFIREAWSSEGRRGVGRLIGVFLFITMFWALFDQTGSSWVLQSQRMDRVLFGHAILPSQIQAANPLLIVLLTPFFHHLLYPALARLIPMTALNKIALGLSFTVLAFALAAWIQMRIDTGLKPSIGWQLLAYLLLTSAEVMVSITSLEFAYTQAPLTMKSFVMALYLGAVALGNLFTALVNFWIERSKTPWLDGAGYFWFFTGLMLATALGFFAYSRNYREELHLQTER	failed
MSQPVAFVTGCSSGIGRALADAFQRAGYRVWASARKEDDVRALAEAGFQAVQLDVNDAAALARLAEELGVEAAGLDVLVNNAGYGAMGPLLDGGVEAMRRQFETNVFAVVGVTRALFPLLRRKSGLVVNVGSVSGVLVTPFAGAYCASKAAVHALSDALRLELAPFGVEVLEVQPGAIASNFGASASREMDSVVDERSPWWPLRRQIQARAAASQDNPTSAEDFARQLLAAVQRRPRPPLVRIGNGSRALPALARWLPRGLLERLLKKRFGLDTRL	failed
METRYNLKSPAVKRLMKEAAELKDPTDHYHAQPLEDNLFEWHFTVRGPPDSDFDGGVYHGRIVLPPEYPMKPPSIILLTANGRFEVGKKICLSISGHHPETWQPSWSIRTALLAIIGFMPTKGEGAIGSLDYTPEERRALAKKSQDFCCEGCGSAMKDVLLPLKSGSDSSQADQEAKELARQISFKAEVNSSGKTISESDLNHSFSLTDLQDDIPTTFQGATASTSYGLQNSSAASFHQPTQPVAKNTSMSPRQRRAQQQSQRRLSTSPDVIQGHQPRDNHTDHGGSAVLIVILTLALAALIFRRIYLANEYIFDFEL	failed
MVGNVRHYLFYANSSELQQQMMNRKSHFNLSQTTQEWLIGKGYNPEDLEQPGENGDSALMKATREGVDAVVKELIDLGVDINARNNDNNNALWFACFGNHYDLIHLLLAAKINIDNQNDNGATVLMYAASAGKTEVVKLLLQYHPNLYLRNLDDFQAIDFASNVEVLRLLKNATK	failed
MQKNFSVVKKYVNLILDIVLGILGVFLLVFMASYLVDLATYLMKPMTPDNFSVIMQEIISFFMLFEFIMMILRYIQEGHHIPIRYLILICLTAILRQLMVAHGDGLQTLLLSLSILLLVVVLFILGLNGSKFYTLGKAKVEEDHEQDFHH	failed
MNPTLSAAVTAPSAGTQDAEAEIRDLAQSLTLEQQVQLLTGADVWSTHAIPEIGLSRVVMSDGPAGVRGEDFDERHDSVSLPSSSALSATWSVETARNYGQVLGQEARRKGVHAVLGPTINLHRSPLGGRHFECMSEDPRLTATMAAGYVAGVQSMGVGATPKHYLANEAETERFTADSVVDERPLRELYLAAFEDAITEARAWLVMSSYNSINGTTASENKLLETPLSTEWGFDGVVVSDWTGVRSIDAANAHQDLEMPGPVGHWGPKLLAAVNEGRVSREAILEKVTRILRLAARVGSLEGFEPAVTHLPTELNGAAVAREVAVRGAVLVRNKGLLPLDAKALGSVAVIGHNADEARTQGGGSATVMPKYTVSPLEGLRKALPEGVKVTYARGAKVAEGIQAFPRTSLHNPVSNVPGIRVTFLAEDGTEISGEDRLASHLIWFGIGIPDGAASIRMEADWTAETAGVHHLGVGTVGRIRFVLDGTEVFNSELEDDTEVLGAALFDPPKTVHAIDTTAGQSIRIEAEYQLPKEQVIPFTAILLGEETVVAEPQAEIDAAVEAARASDVAVVVVGTNAAIESEGFDRKDLDLPGYQNQLVKAVAAANPRTVVVVNSGSPVLMPWLDTVDAVLLGWFGGQEFGSAVADILLGVEEPGGRLPTTWPSALDDVPVLNTTPTDGKVVYSEGIHIGYRAWLKQQAEGGAAPALPFGFGLGYTTFEFGKAHAPQAVTAGKDLVVHVPVKNTGTRTGREVVQVYVERTESAVERPVRWLAGYAGAHLAPAGTESVEIRIPAKAFAHYDGGWQFEQGTFRLLVGRHAADDFQSLDIELR	failed
MEVLKDFLLFYGGLFAITNPIGAVPVFIAVTRNLSPEKRKEIARKTSTTVMVTLLVFALVGEWIFKFFGASTDAFSIAGGIILFRMSLEMLSGKLSSVKISEEEEHISEEAVTLEEVAIIPLAIPLLSGPGAITTTMLYMAKSSTMIEKSIVLLVVVAIGITVWIILSAANRIHQKLGTIGIKVMTRMMGLILASMAVQMVINGVKGAFNI	failed
MEEGVNMDIRPTRIELIRTRRRIRLAKKGLDLLKMKRSALIYEFLQISRTIRGMKENLRKEVVEALNIIKVASVLEGSLALERIANMSSDSRINVNSRNVMGVNIPTLEVSYNLSILSDVYRTVSVPVAIDDSIRRFQKLFYDLILIVEKENSLRNLLMEIDRTKRRSNAIENILIPRLEYQAKMIKMTLDERERDTFTTLKTIKKKIEAENDLEHHHHHH	failed
LLNMKRAETGKALSPLQIQELQYMLEDFSPELIHEALKEAVSQGKANFAYIKVILNRWKQDNLLTVELVRN	failed
MTQQHPHLLEPELGEFLTALKNTPSRLTARTAAWLCIWTASRPGMVRLAEWKEFDLDKATWTTPAAKMKMRRDFVCPLPHQAIAALKELHCLTGRSRWLFPGVGAKNPTISENTINKVFATIGYKGRLVGHGTRHTASTLLREHGWPKEHVEAQLAHKEEGLEHHHHHH	failed
MARTFRSLRNFNYRVWASGAIVSNIGTWMQRTAQDWLVLTELTHHNATAVGIVMSLQFGPQMLLLPLTGYAADHFNRRKLLFITQTAMGLLALGLGLMTVTGLVRLWHVYVFALLLGCVTAFDAPARQTFVSDLVGEEDLPNAVALNSTSFNGARMIGPAITGLLIASIGTGWVFLINALSFVPVIGALRMLRQHELHLKPPAQRSRGSFLEGFRYVWKRPDLKAALFMLFLIGTFGLNFPIFISTMSVSAFHAGAGQYGLLSSTMAIGSVTGTLLAARRARPRMAILVGAATIFGVGCMFGALMPNAVLFGLTLAVIGASTQTFTTSTNSLVQISTEPAMRGRVIAILLAIALGTTPLGAPVVGWVADRFGPRWALGVGAASGFAAALVGLFYLMRNRNLRFYIETGRLRYSIDKPRQTAFMAAPAASVPNVVMSKAEDE	failed
MATFSLGKHPHVELCDLLKLEGWSESGAQAKIAIAEGQVKVDGAVETRKRCKIVAGQTVSFAGHSVQVVA	not failed
MTIRMIPHPIFSSPTKRRREKPDPPARAGAAQPSGPARMTPQQQTEWQQRLIALLESQPPDDDGAHDLSHLHRVWAVARTLLAHYPDADSIVVMAGSYLHDLVNLPKNHPQRQLASHWSAERARQLLADSGLTEAQLDNLAHAIEAHSYSAAIPPRTLEARIVQDADRMDALGPVGLARMFYVSGRMGRALAHPLDPLAEHRGRDDQAWAIDHIDVKLAKLPGMMQTEAGRAMAERKLEWLFHFRDEFCRDWMARLEHHHHHH	not failed
NGDPQWLVQAARTAVLRTYEYGRALLKGLFTDSPFNIDIFDTQLRFVGLNIAERRAGVFQGTEYSGHTMREMAPPGLLDVDALEARQRRVLETGKALIDTEVVGHPVANSPREYVWSESILPLRDPSGRVIALGHVVSDV	failed
MIFSQRIYFIILFHVLLILVTAGTGLWLVVSHTGYIIGGILLLCSLFQIGALTRQLNTFNRKIRLFFDAVQDKDNMLYFPEANVGKEQAQLNRSLNRLNDLLARTKGESHKQEHFYQSLLEEVPSGVLAWDDSGRIIIANSAAFSLLKCNRLYTETQLAQLLNATGIRKSLSISEKKMILDGETITILSIKDIGDELSDKENESWSKLTHVLTHEIMNTIAPILSLSQTLSERPDINEKSARGLRIIQAQSERLMEFTESFRHLSYLPHPEKRRFALTEMLRNLEELLQSDFRERGIRFMLQCVPDPIETDGDPNQLSQVFLNLLKNAMQALEGQADGRIILRVRRADRLQVEIEDNGPGIPEEIREQIFIPFFTTKTEGSGIGLSLCKQIIRQHDGHLSIRESRPGQTIFSLDLP	failed
MGHHHHHHSHTGKTTFSATIHALEGGVVADCDVDAPNLHILLKPQILKAEDFIASKKARIMPEKCSSCGLCYDLCRFGAVVAEDGYYVDEKKCEGCAFCFNVCPERAIEMENVKTGDLYVSKTEWGYFVHARLKPGEENTGRLVTEVKNRAKEIAEESNAEFLIVDSAPGVGCPVMASLTGVDAAIIVTEPTVSGLSDMLRILELCEHFRIRPFVVVNKFDLNVNIASEIESYCSENGVEFAGRVPFDKAIPEQIANLNFPFSGKAADKMVEIWKKLRE	not failed
FDQAPVLVVGDVMLDRYWHGGTSRISPEAPVPVVKVDQIEDRPGGAANVALNIAALGAPASLVGVTGDDEAAESLTNSLKAAGVVARFQRIADQPTIVKLRVMSRHQQLLRIDFEEPFNTDPLALSAEVYSLLDGIKVLVLSDYGKGALKNHQALIQAARKRGIPVLADPKGKDFAIYRGASLITPNLSEFEAIVGHCEDEAQLVTKGAQLMQELDLGALLVTRGEHGMTLLRPDQQALHLPARAREVFDVTGAGDTVISTLAAAIAAGEELPHAVALANLAAGIVVGKLGTAAISAPELRRAIQR	failed
MMDRDDDGYAERVAFYDTVYEQPERALDLAWLRRWLPPQFFGRRVLELACGSGYWTQYLAPAARAYQALDVSAGALALAGQRPGVGGVAFAVGEVETLPRPAQPFDAVFAGLWFSHLPRQRREGALAALHGCLAPGATVILLDNSEAQGGQFPVVEYDSEGNGYQSRPRHDGGQSRVLKNFPTEAEFRILLAPYGAAEIALMRREHFWLLRYRLPSRH	failed
MLKSKIKEEYVQMDQVDWKPFPAAFSTGGIRWKLLHVSPEMGSWTAIFDCPAGSSFAAHVHVGPGEYFLTKGKMDVRGGKAAGGDTAIAPGYGYESANARHDKTEFPVASEFYMSFLGPLTFVKPDGSPIAVIGWEDAQGAWAA	not failed
STQVSQATSQPINFQVQKDGSSEKSHMDDYMQHPGKVIKQNNKYYFQTVLNNASFWKEYKFYNANNQELATTVVNDNKKADTRTINVAVEPGYKSLTTKVHIVVPQINYNHRYTTHLEFEKAIPTLADAAK	not failed
MNYSIRLFKIMGIPIELHITFILFLVVIIGLSIMNNSIFWAVLFILLFVSVVLHELGHSYVAKKYGVKIEKILLLPIGGVAMMDKIPKEGELRIGIAGPLVSFIIGIVLLIVSQFFDININGYPLLYTLSLLNLMLGGFNLIPAFPMDGGRILRAILSKKYGYLKSTKIAANIGKSLALIMLLFGLLSMNIILILVSLFVYFGAEQESRVVEVETIFKNIKAKDIMTPNPVYVTPDMSIEEFLDFMLKHKYFGYPVVENGKLVGCIGIGNIHKKEGTVRDYMEKPVVVSEDTDIKEILRKMANTDRVFVVEGGKLKGIISKTDILRAMSILELKEELKD	failed
MHISFIIPAFNEEQLIEPCLRSITDAVAANRSYGYTSEIIVVDNNSTDATAQLAKQAGAQVVFEPVNHIARARTAGAGAARGDWLVFMDADCLLNAGLVGDIFELIRQGRHIGAGSTLYMPGQPWWAEMLLRIWTFLSVQLGWAAGALIVCNAAAFREVGGFDLTLYAAEEIDLSQKLKKYGRKRKLKFAILNAHPLETSSRKTQLYSGWEIVGQFLRLVLSPLGTLRNKKKLPMWYDGRRLEHHHHHH	not failed
MTDPADRPLIERIRACRLCADRFAATHTAHEPRPVVWFRPGARLLIAGQAPGARVHASGRPFTDPSGDRLRDWLGIGEETFYDRSRVAVVPMAFCFPGYNSQGADLPPPPVCGKTWHNQVMGELGEMPLSVLVGGHALKYHLGARSPVTETVAAWRDHAPRVFALPHPSWRNTGWLRKNPWFEAELLPVLRARVKEVLNEPDRSANPD	failed
TLEWPELLQQCEQLNKPNQINLNPALLWQCQGVGSAPPASNLRESRIKAVLAINPVTNPIFGPDGMKNLAVPTLIVAGSKDIFAPPVPEQIIPFSLIEGVNKYLLLVQNGTHLSFLEDTDNLPEKIVGPGQDLAYTYMKSLGLAFFDLYLQQDSSFKPYLTDSVVQQMSQEPLPLQLVPSL	failed
